Results on three substances are retold here after publication PMC9507130.

The assay addresses Vin1^1-116-mScI (UniProt P36158). Kind of assay: subcellular recruitment assay (fluorescence microscopy, puncta quantification). As to conditions: vrl1 vin1Δ cells; over-expressed Vrl1(1-703)YPE chimera; pVIN1(1-116)-mScI; n=3, cells/strain/replicate ≥863; parent: est. 0.82; read off a plot.
Sequence of UniProt P36158 (P36158 1-116): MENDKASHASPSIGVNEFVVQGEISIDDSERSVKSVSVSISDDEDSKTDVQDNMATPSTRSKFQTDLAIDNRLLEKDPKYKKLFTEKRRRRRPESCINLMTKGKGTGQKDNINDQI
In the case of “Vrl1(1-703)^YPE (from UniProt P38815) D511K”, the other: Average Bright Vin1(1-116)-mScI Puncta Per Cell (puncta per cell) stood at 0.14.

As for “Vrl1(1-703)^YPE (from UniProt P38815) E504A; E510A; D511A; N546A; E551A”, the other: Average Bright Vin1(1-116)-mScI Puncta Per Cell (puncta per cell) stood at 0.075.

Consider “Vrl1(1-703)^YPE (from UniProt P38815) E510R”, for which the other: Average Bright Vin1(1-116)-mScI Puncta Per Cell (puncta per cell) was determined as 0.04.
